Experimental data: publication PMC3900414

Biological target: T1, hPus1 (79-408) (Homo sapiens, UniProt Q9Y606 79-408)
T1 sequence: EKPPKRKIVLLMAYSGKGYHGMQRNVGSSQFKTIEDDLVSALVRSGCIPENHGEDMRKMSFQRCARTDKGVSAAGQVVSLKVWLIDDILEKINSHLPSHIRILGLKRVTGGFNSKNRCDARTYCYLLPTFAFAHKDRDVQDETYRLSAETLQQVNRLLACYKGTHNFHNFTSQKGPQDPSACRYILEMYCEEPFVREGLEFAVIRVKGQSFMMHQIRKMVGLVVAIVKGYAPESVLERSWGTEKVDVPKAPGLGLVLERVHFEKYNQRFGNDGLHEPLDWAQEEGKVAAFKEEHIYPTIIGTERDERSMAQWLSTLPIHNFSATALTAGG
Assay: size exclusion chromatography

GAUGGACUUGAAAUCCAUUGGCGCAGGUUCGAAUCCUGC (structured_RNA) [minimal tRNASer (nt 26-65), unlabeled]
binding result: binds
